Data set [1] concerns the target T1, LARP1 DM15 (Homo sapiens, UniProt Q6PKG0-3 796-946). Kind of data set: EMSA; Competition assays: 20 mM Tris pH 8, 150 mM NaCl, 10% glycerol, 1 mM DTT, 0.5 ug BSA, 0.5 ug tRNA, 30 min on ice, native gel; EMSA as in Lahr et al. 2015 with RNA <=200 pM. The following applies: protein: recombinant. (A gel shift assay detects complexes by their altered migration in electrophoresis.)

A further data set concerns the target eIF4E (Homo sapiens, UniProt P06730 1-217). Kind of data set: competition; outcompetes DM15 as pre-bound or competitor protein; Competition assays: 20 mM Tris pH 8, 150 mM NaCl, 10% glycerol, 1 mM DTT, 0.5 ug BSA, 0.5 ug tRNA, 30 min on ice, native gel; EMSA as in Lahr et al. 2015 with RNA <=200 pM. The following applies: protein: recombinant; tags: His6-MBP removed by TEV; label: 32P in cap.

For data set [2], the target named is T1, LARP1 DM15. Nature of the data set: crystal structure; Competition assays: 20 mM Tris pH 8, 150 mM NaCl, 10% glycerol, 1 mM DTT, 0.5 ug BSA, 0.5 ug tRNA, 30 min on ice, native gel; EMSA as in Lahr et al. 2015 with RNA <=200 pM. The following applies: protein: recombinant.

Sequence of eIF4E (P06730 whole entry): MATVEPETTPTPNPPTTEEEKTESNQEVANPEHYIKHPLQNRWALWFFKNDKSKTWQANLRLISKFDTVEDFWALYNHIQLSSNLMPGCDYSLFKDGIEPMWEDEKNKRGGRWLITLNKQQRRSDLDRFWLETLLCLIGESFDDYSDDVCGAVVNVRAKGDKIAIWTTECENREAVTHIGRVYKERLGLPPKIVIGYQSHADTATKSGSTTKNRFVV

On to CUCUCUUCCUCGGCGCUGCCUACGGAGGUGGCAGCCAUCUCC (ssRNA, 5' m7Gppp cap) [m7Gppp-RPL32 42mer], for which, in the data set with LARP1 DM15 [1] (label: 32P in cap), the binding result is on record as “binds”.
The Kd is the constant that tells how readily two partners part at equilibrium. Regarding GCCUCUUUUCCGUGGCGCCUCGGAGGCGUUCAGCUGCUUCAAG (ssRNA) [G-RPS6 (uncapped non-TOP)], the Kd with LARP1 DM15 [1] (label: 5' 32P) was 7500 nM.
For the molecule GCCUCUUUUCCGUGGCGCCUCGGAGGCGUUCAGCUGCUUCAAG (ssRNA, 5' m7Gppp cap) [m7Gppp-G-RPS6 (capped non-TOP)], the binding result with eIF4E is “binds”. The equilibrium dissociation constant (Kd) with LARP1 DM15 [1] (label: 32P in cap) was found to be 2000 nM.
Turning to CUUUUCCG (ssRNA) [RPS6 8mer], the binding result with LARP1 DM15 [2] is listed as “binds”.
On to CCUCUUUUCCGUGGCGCCUCGGAGGCGUUCAGCUGCUUCAAG (ssRNA, 5' m7Gppp cap) [m7Gppp-RPS6 42mer (capped TOP)], for which the dissociation constant (Kd) with LARP1 DM15 [1] (label: 32P in cap) came to 21 nM.

For the origin of these results see paper PMC5419741, “La-related protein 1 (LARP1) binds the mRNA cap, blocking eIF4F assembly on TOP mRNAs”.
